The values below come from PMC5597230, “Identification and characterization of preferred DNA-binding sites for the Thermus thermophilus transcriptional regulator FadR”.

Numbering of substitutions follows the chain as printed.

First the molecules themselves.
T1: FadR (Thermus thermophilus HB8, UniProt Q5SM42 1-205)
T1 sequence: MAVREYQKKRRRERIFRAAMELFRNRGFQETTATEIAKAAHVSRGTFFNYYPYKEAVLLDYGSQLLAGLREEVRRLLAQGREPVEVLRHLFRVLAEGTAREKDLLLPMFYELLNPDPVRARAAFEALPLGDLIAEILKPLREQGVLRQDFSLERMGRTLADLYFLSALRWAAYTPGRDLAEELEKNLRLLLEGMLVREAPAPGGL

B1: ST2_FadR_R5_wt (dsDNA)
DNA 1: AGGAATTCGTGCAGAGGTGAATTTGGACTTAGTCCAATTACCATCCCTCCAGAAGCTTGG
DNA 2: CCAAGCTTCTGGAGGGATGGTAATTGGACTAAGTCCAAATTCACCTCTGCACGAATTCCT
B2: ST2_FadR_R5_m7 (dsDNA)
DNA 1: B1 DNA 1 with T29A
DNA 2: B1 DNA 2 with A32T
B3: ST2_FadR_R5_m5 (dsDNA)
DNA 1: B1 DNA 1 with A27G
DNA 2: B1 DNA 2 with T34C
B4: ST2_FadR_R5_m4 (dsDNA)
DNA 1: B1 DNA 1 with G26C
DNA 2: B1 DNA 2 with C35G
B5: ST2_FadR_R5_m1 (dsDNA)
DNA 1: B1 DNA 1 with T23G
DNA 2: B1 DNA 2 with A38C
B6: ST2_FadR_R5_m3 (dsDNA)
DNA 1: B1 DNA 1 with G25C
DNA 2: B1 DNA 2 with C36G
B7: ST2_FadR_TTHA1118 (dsDNA)
DNA 1: B1 DNA 1 with G25A, G26T, T30C, A31G, C34A, C35A
DNA 2: B1 DNA 2 with G26T, G27T, T30C, A31G, C35A, C36T
B8: ST2_FadR_TTHA0390 (dsDNA)
DNA 1: B1 DNA 1 with G26A, T29C, T30G, A31G, C34A, C35T
DNA 2: B1 DNA 2 with G26A, G27T, T30C, A31C, A32G, C35T
B9: ST2_FadR_TTHA1144 (dsDNA)
DNA 1: B1 DNA 1 with G25A, T30C, A31G, C35A
DNA 2: B1 DNA 2 with G26T, T30C, A31G, C36T
B10: ST2_FadR_TTHA0604 (dsDNA)
DNA 1: B1 DNA 1 with G25A, G26T, T30G, A31G, C35T
DNA 2: B1 DNA 2 with G26A, T30C, A31C, C35A, C36T
B11: ST2_FadR_TTHA0402 (dsDNA)
DNA 1: B1 DNA 1 with G26A, T29C, T30C, C34A, C35T
DNA 2: B1 DNA 2 with G26A, G27T, A31G, A32G, C35T
B12: ST2_FadR_TTHA0846 (dsDNA)
DNA 1: B1 DNA 1 with G25A, G26T, T30C, C34A, A37T
DNA 2: B1 DNA 2 with T24A, G27T, A31G, C35A, C36T
B13: ST2_FadR_TTHA0103 (dsDNA)
DNA 1: B1 DNA 1 with T29C, A31G, C34A, C35A
DNA 2: B1 DNA 2 with G26T, G27T, T30C, A32G
B14: ST2_FadR_TTHB017 (dsDNA)
DNA 1: B1 DNA 1 with G25A, G26T, T30G, A31G
DNA 2: B1 DNA 2 with T30C, A31C, C35A, C36T
B15: ST2_FadR_TTHA1463 (dsDNA)
DNA 1: B1 DNA 1 with G26A, T29C, T30C, A31G, C34A
DNA 2: B1 DNA 2 with G27T, T30C, A31G, A32G, C35T

For one series, the target named is T1, FadR. Kind of series: EMSA; EMSA as in previous SbtR study (buffer, salt, pH, temperature not given in the material); FadR titrations up to 600 nM, IRD700-labeled probes. Conditions: protein: recombinant; tags: none stated (pET-11a); chain copies: 2; label: IRD700.
The term Kd denotes the free concentration of one partner at which half of the binding sites on the other are occupied at equilibrium, for simple one-to-one binding. For the molecule B1, the Kd was determined as 0.17 nM.

The next series deals with T1, FadR. Kind of series: EMSA; range stated for m1,m3,m4,m5,m7; exact value only in figure; EMSA as in previous SbtR study (buffer, salt, pH, temperature not given in the material); FadR titrations up to 600 nM, IRD700-labeled probes. Conditions: protein: recombinant; tags: none stated (pET-11a); chain copies: 2; label: IRD700. Background: A gel shift assay detects complexes by their altered migration in electrophoresis.
Turning to B2, the equilibrium dissociation constant (Kd) is approximately 4.69 nM. Same read-out and setting: as for B3, the figure is approximately 4.69 nM. Take B4: the dissociation constant (Kd) is approximately 4.69 nM. On to B5, for which the Kd was approximately 4.69 nM. For B6, the equilibrium dissociation constant (Kd) is approximately 4.69 nM.

The target in another series is T1, FadR. Put plainly: EMSA; Kd in figure only; all promoter probes 0.053-11 nM; EMSA as in previous SbtR study (buffer, salt, pH, temperature not given in the material); FadR titrations up to 600 nM, IRD700-labeled probes. Conditions: protein: recombinant; tags: none stated (pET-11a); chain copies: 2; label: IRD700.
In the case of B7, the binding result was “binds”. For the molecule B8, the binding result is recorded as “binds”. For the molecule B9, the binding result is on record as “binds”. Same read-out and setting: the result for B10 reads “binds”. With B11, the binding result was “binds”. In the case of B12, the binding result is recorded as “binds”. As to B13, the binding result is on record as “binds”.

A further series concerns the target T1, FadR. Kind of series: EMSA; very low KD stated; value in figure only; EMSA as in previous SbtR study (buffer, salt, pH, temperature not given in the material); FadR titrations up to 600 nM, IRD700-labeled probes. Conditions: protein: recombinant; tags: none stated (pET-11a); chain copies: 2; label: IRD700.
Regarding B14, the binding result is “binds”. As for B15, the binding result is given as “binds”.
